Measured values from article PMC10045489 (2023).

B1: H11-H4 nanobody (VHH)
VHH: QVQLVESGGGLMQAGGSLRLSCAVSGRTFSTAAMGWFRQAPGKEREFVAAIRWSGGSAYYADSVKGRFTISRDKAKNTVYLQMNSLKYEDTAVYYCAQTHYVSYLLSDYATWPYDYWGQGTQVTVSS
B2: Nb20 nanobody (VHH)
VHH: QVQLVESGGGLVQAGGSLRLSCAVSGAGAHRVGWFRRAPGKEREFVAAIGASGGMTNYLDSVKGRFTISRDNAKNTIYLQMNSLKPQDTAVYYCAARDIETAEYIYWGQGTQVTVSS
B3: ab8 nanobody (VHH)
VHH: QVQLVESGGGLVQPGGSLRLSCAASGFTFDDYAMSWVRQAPGKGLEWIGRMYNNGRTSYNPSLKSLVTISRDNSKNTLYLQMNSLRAEDTATYYCARDNLGYRPSENLYGMDVWGQGTQVTVSS

biological target: full-length His-tagged SARS-CoV-2 spike protein (wild-type) (SARS-CoV-2, UniProt P0DTC2); experiment: BLI

With B1 as the binder, how does the Kd read?
Its Kd is ~0.061 µM.

How did the Kd turn out when B2 was run?
Its Kd is ~0.00072 µM.

Which Kd does the source give for B3 here?
Its Kd is ~0.12 µM.
